Results as given in the supplement of paper PMC7125110.
± gives the standard error. Variants at the floor of the assay were thinned out.

B1: glmS ribozyme (parent)
chain: AUAAAAGCGCCAGAACUACAGAAAUGUAGUUGACGAGGAGGAGGUUUAUCGAAUUUUCGGCGGAUGCCUCCAAA

Experiments:
Settings in all cases: with glucosamine-6-phosphate
glucosamine-6-phosphate [1] = variants of: B1; test: self-cleavage kobs at 40 uM GlcN6P; higher = faster cleavage; RNA array
Summary of the method: (§1)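 In situ transcription by E. coli RNA polymerase produced barcoded ribozyme variants on sequenced MiSeq chips, and a hybridised Cy3 probe tracked them at 37 °C. Glucosamine-6-phosphate was flowed in at 40 μM to 10 mM in HEPES/KCl/Mg(OAc)2 buffer. kcat and KM were taken from weighted Michaelis–Menten fits of kobs values from exponential decay fits.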

glucosamine-6-phosphate [2] = variants of: B1; test: self-cleavage kobs at 2500 uM GlcN6P; higher = faster cleavage; RNA array
Summary of the method: as §1

glucosamine-6-phosphate [3] = variants of: B1; test: self-cleavage kobs at 640 uM GlcN6P; higher = faster cleavage; RNA array
Summary of the method: as §1

glucosamine-6-phosphate [4] = variants of: B1; test: self-cleavage kobs at 160 uM GlcN6P; higher = faster cleavage; RNA array
Summary of the method: as §1

glucosamine-6-phosphate [5] = variants of: B1; test: self-cleavage kobs at 10000 uM GlcN6P; higher = faster cleavage; RNA array
Summary of the method: as §1

Variant | self-cleavage kobs at 40 uM GlcN6P (glucosamine-6-phosphate [1]) [s⁻¹] | self-cleavage kobs at 2500 uM GlcN6P (glucosamine-6-phosphate [2]) [s⁻¹] | self-cleavage kobs at 640 uM GlcN6P (glucosamine-6-phosphate [3]) [s⁻¹] | self-cleavage kobs at 160 uM GlcN6P (glucosamine-6-phosphate [4]) [s⁻¹] | self-cleavage kobs at 10000 uM GlcN6P (glucosamine-6-phosphate [5]) [s⁻¹]
C8U A14G G37A A39U G40U U47A C58G U65G C70U | < 1e-05 | < 1e-05 | – | – | –
G7A C11G U69A | 0.000101 ± 2.8e-05 | – | – | – | –
A6G U31A G44U C67G | < 1e-05 | – | < 1e-05 | – | –
C8G G29C A64G | < 1e-05 | – | – | – | –
G7U C8U | < 1e-05 | < 1e-05 | < 1e-05 | < 1e-05 | < 1e-05
G7A A12G | < 1e-05 | < 1e-05 | < 1e-05 | – | < 1e-05
A6G C8U U54G C68G | 0.000149 ± 5.2e-05 | – | 0.000705 ± 0.00028 | – | 7.88e-05 ± 2.2e-05
A6C G43U C67A | < 1e-05 | – | – | – | –
A6U A39U G40A | < 1e-05 | – | – | – | –
U2G A33G | < 1e-05 | – | – | – | < 1e-05
A6U G32C | < 1e-05 | < 1e-05 | < 1e-05 | < 1e-05 | –
A6U G32C G59A | < 1e-05 | – | – | – | < 1e-05
C8A C58G | < 1e-05 | – | < 1e-05 | < 1e-05 | –
A6G A14U U31C C50G | 4.57e-05 ± 2.1e-05 | – | – | – | 0.000265 ± 9.7e-05
G7C C10A G29U A64C | < 1e-05 | < 1e-05 | – | – | < 1e-05
C8U U30C | < 1e-05 | < 1e-05 | < 1e-05 | < 1e-05 | < 1e-05
G7A U47C | < 1e-05 | – | < 1e-05 | < 1e-05 | –
A6C G37A G41A A42U | < 1e-05 | – | – | – | < 1e-05
C8U A53C | < 1e-05 | < 1e-05 | < 1e-05 | < 1e-05 | < 1e-05
G7C A12G C67A | < 1e-05 | – | – | – | < 1e-05
A6G G35U U56A | < 1e-05 | – | – | – | –
C8A G13A | < 1e-05 | < 1e-05 | < 1e-05 | < 1e-05 | < 1e-05
U2C C11U G40A U45G | < 1e-05 | – | – | – | –
G7U G38A A48G G60C | < 1e-05 | – | – | – | < 1e-05

Variant | self-cleavage kobs at 40 uM GlcN6P (glucosamine-6-phosphate [1]) [s⁻¹] | self-cleavage kobs at 2500 uM GlcN6P (glucosamine-6-phosphate [2]) [s⁻¹] | self-cleavage kobs at 640 uM GlcN6P (glucosamine-6-phosphate [3]) [s⁻¹] | self-cleavage kobs at 160 uM GlcN6P (glucosamine-6-phosphate [4]) [s⁻¹] | self-cleavage kobs at 10000 uM GlcN6P (glucosamine-6-phosphate [5]) [s⁻¹]
G9A A53C | < 1e-05 | < 1e-05 | < 1e-05 | < 1e-05 | < 1e-05
A6G A36C C71U | < 1e-05 | – | – | – | < 1e-05
G7A A15C C50U C70A | 0.000237 ± 4.9e-05 | – | – | – | –
A6C A14C U45G U57C | < 1e-05 | – | – | – | < 1e-05
A6G G13U | < 1e-05 | – | < 1e-05 | < 1e-05 | –
G7A G60A | < 1e-05 | – | < 1e-05 | < 1e-05 | < 1e-05
C8U G13U | < 1e-05 | < 1e-05 | < 1e-05 | – | < 1e-05
A6G G29C U45G C70G | < 1e-05 | – | – | – | –
A6G G60A G62C | < 1e-05 | – | – | – | –
A6G A15C C70A | < 1e-05 | – | – | – | –
A6U A15U G63A C70U | < 1e-05 | – | – | – | –
C8U G9C G35U C61G | < 1e-05 | – | – | – | –
G7C G29C | < 1e-05 | < 1e-05 | < 1e-05 | – | < 1e-05
G7C C34G | < 1e-05 | < 1e-05 | < 1e-05 | < 1e-05 | < 1e-05
C8A U31A C50G A53U C70A | 0.000306 ± 7.3e-05 | – | – | – | 0.000515 ± 0.00016
A6C G9U U47G | < 1e-05 | < 1e-05 | – | – | < 1e-05
C8A G37A | < 1e-05 | – | – | – | < 1e-05
C8U G32C | < 1e-05 | < 1e-05 | < 1e-05 | < 1e-05 | < 1e-05
G7U C10G A15U C34A G40U C58G G60C G63A | < 1e-05 | – | < 1e-05 | – | < 1e-05
A6U U49C | < 1e-05 | < 1e-05 | – | < 1e-05 | < 1e-05
C8A A15C | < 1e-05 | < 1e-05 | < 1e-05 | < 1e-05 | –
C8A A15G | < 1e-05 | < 1e-05 | < 1e-05 | < 1e-05 | < 1e-05
G7C U46G C67G | < 1e-05 | – | – | – | < 1e-05
C8A G35C A48C G60A | < 1e-05 | – | – | – | –
